Assay results: PMC9841404, “Werner syndrome protein works as a dimer for unwinding and replication fork regression” (Nucleic Acids Research, 2022)

Columns and labels:
[1] = molecular target: the molecule itself; assay: single-molecule GFP photobleaching step counting (TIRF microscopy); real-time binding of GFP-tagged WRN to model replication fork immobilised via biotin-streptavidin; all bound molecules counted; no ATP; 10 mM Tris-HCl pH 8.0, 50 mM NaCl; room temperature; oligomer counted on DNA
[2] = molecular target: the molecule itself; assay: single-molecule GFP photobleaching step counting (TIRF microscopy); immobilised forked DNA incubated with 24 nM GFP-tagged WRN and 1 nM RPA, unbound washed out; steps counted in the absence of ATP; only molecules with unwinding activity (Cy3-Cy5 FRET after 1 mM ATP-Mg2+) counted; room temperature

B1: GFP-tagged Werner syndrome protein (f:GFP-WRN) (enzyme)
chain: not shown
notes: Werner syndrome protein (WRN), human; cDNA encoding full-length WRN generated by RT-PCR from total RNA of HEK293T cells, subcloned into pFASTBAC1; Number of copies depends on the condition: dimer or tetramer on DNA (see measurements); also called GFP-tagged WRN; not shown: FLAG, N-terminal, kept; GFP, N-terminal, kept
stoichiometry N [1]: 4
stoichiometry N [2]: 2
